Source: paper PMC9995517 (2023)
Changes are numbered by the printed parent chain. In names and notes the source's numbering stands.

Target: F-actin (preassembled filaments of rabbit skeletal muscle actin) (rabbit, UniProt P68135 1-377)

B1: tyrosyl-tRNA synthetase E196K (CMT-causing mutant), recombinant Xpress-6xHis tagged (His-YARS1^E196K) (enzyme)
chain: MGDAPSPEEKLHLITRNLQEVLGEEKLKEILKERELKIYWGTATTGKPHVAYFVPMSKIADFLKAGCEVTILFADLHAYLDNMKAPWELLELRVSYYENVIKAMLESIGVPLEKLKFIKGTDYQLSKEYTLDVYRLSSVVTQHDSKKAGAEVVKQVEHPLLSGLLYPGLQALDEEYLKVDAQFGGIDQRKIFTFAKKYLPALGYSKRVHLMNPMVPGLTGSKMSSSEEESKIDLLDRKEDVKKKLKKAFCEPGNVENNGVLSFIKHVLFPLKSEFVILRDEKWGGNKTYTAYVDLEKDFAAEVVHPGDLKNSVEVALNKLLDPIREKFNTPALKKLASAAYPDPSKQKPMAKGPAKNSEPEEVIPSRLDIRVGKIITVEKHPDADSLYVEKIDVGEAEPRTVVSGLVQFVPKEELQDRLVVVLCNLKPQKMRGVESQGMLLCASIEGINRQVEPLDPPAGSAPGEHVFVKGYEKGQPDEELKPKKKVFEKLQADFKISEECIAQWKQTNFMTKLGSISCKSLKGGNIS
Kd: 800 nM

B2: tyrosyl-tRNA synthetase, wild type, recombinant Xpress-6xHis tagged (His-YARS1^WT) (enzyme)
chain: B1 chain with K196E
Kd: 750 nM
